Experimental data from paper PMC11865592 (Nature Communications, 2025).

Assays:
Details in all cases: both partners purified
[1] = biological target: T1, non-glycosylated rat HEV pORF2 P domain (Rat hepatitis E virus, R68/DEU/2009 in …, strain); assay: SPR
T1 construct: also called rat HEV P domain; source: Drosophila S2 cells, purified from cell lysates (Strep-Tactin XT, SEC); not shown: double strep tag, N-terminal, kept

[2] = biological target: T2, non-glycosylated HEV GT 4 pORF2 P domain (Hepatitis E virus genotype 4, isolate …, UniProt Q9IVZ8, strain); assay: SPR
T2 construct: also called HEV GT 4 P domain; source: Drosophila S2 cells, purified from cell lysates (Strep-Tactin XT, SEC); not shown: double strep tag, N-terminal, kept

[3] = biological target: T3, non-glycosylated HEV GT 2 pORF2 P domain (Hepatitis E virus genotype 2, isolate …, UniProt Q03500, strain); assay: SPR
T3 construct: also called HEV GT 2 P domain; source: Drosophila S2 cells, purified from cell lysates (Strep-Tactin XT, SEC); not shown: double strep tag, N-terminal, kept

[4] = biological target: T4, non-glycosylated HEV GT 1 pORF2 P domain (Hepatitis E virus genotype 1, isolate …, UniProt P33426, strain); assay: SPR
T4 construct: also called HEV GT 1 P domain; source: Drosophila S2 cells, purified from cell lysates (Strep-Tactin XT, SEC); not shown: double strep tag, N-terminal, kept

[5] = biological target: T5, non-glycosylated rat HEV pORF2 P domain (Rat hepatitis E virus, R68/DEU/2009 in …); assay: SPR
T5 construct: not shown: double strep tag, N-terminal, kept

[6] = biological target: T5, non-glycosylated rat HEV pORF2 P domain; assay: ELISA; plates coated with 100 ng P domain per well in PBS overnight at 4 °C; antibody (IgG) at 2 μg/ml, 1 h at room temperature; HRP-conjugated goat anti-human antibody
[7] = biological target: T6, non-glycosylated HEV GT 3 pORF2 P domain dimer (amino acids 456-660), expressed in the cytosol (Hepatitis E virus genotype 3, isolate …, strain); assay: as above
T6 construct: not shown: double strep tag, N-terminal, kept

[8] = biological target: T7, non-glycosylated HEV GT 4 pORF2 P domain (Hepatitis E virus genotype 4, isolate …, UniProt Q9IVZ8, strain); assay: as above
T7 construct: also called GT 4 P domain; not shown: double strep tag, N-terminal, kept

[9] = biological target: T8, non-glycosylated HEV GT 2 pORF2 P domain (Hepatitis E virus genotype 2, isolate …, UniProt Q03500, strain); assay: as above
T8 construct: also called GT 2 P domain; not shown: double strep tag, N-terminal, kept

[10] = biological target: T9, non-glycosylated HEV GT 3 pORF2 P domain (Hepatitis E virus genotype 3, …); assay: SPR
T9 construct: also called non-glycosylated GT 3 P domain; HEV GT3 P domain; not shown: double strep tag, N-terminal, kept

[11] = biological target: T6, non-glycosylated HEV GT 3 pORF2 P …; assay: SPR
[12] = biological target: T10, glycosylated HEV GT 3 pORF2 P domain dimer (amino acids 456-660), secreted, carrying a glycan at N562 (Hepatitis E virus genotype 3, isolate …, strain); assay: SPR
T10 construct: not shown: double strep tag, N-terminal, kept

[13] = biological target: T10, glycosylated HEV GT 3 pORF2 P domain …; assay: ELISA; plates coated with 100 ng P domain per well in PBS overnight at 4 °C; antibody (IgG) at 2 μg/ml, 1 h at room temperature; HRP-conjugated goat anti-human antibody

B1: scFv p60.12 (scFv, V domains shown)
VH: QVQLVQSGAEVKKPGSSVKVSCKASGDTFSSYVISWVRQAPGQGLEWMGGIIPIIGTANYAPKFQDTVTITADKSTNTVYMEMRSLRSEDTAVYYCASNVQLQRRGNWFDPWGQGTLVTVSS
VL: QSALTQPASVSGSPGQSITISCTGTSSDIGDYNFVSWYQQHPGKAPKLMIFDVTNRPSGVSNRFSGSKSGNTASLTISGLQVEDEADYYCSSYTSTNTPVVFGGGTKLTVL
notes: also called bnAb p60.12; nAb p60.12
Kd [1]: 5590 nM | koff [1]: 0.246 s⁻¹ | Kd [2]: 8.75 nM | koff [2]: 0.000609 s⁻¹ | Kd [3]: 0.509 nM | koff [3]: 2.96e-05 s⁻¹ | Kd [4]: 3.29 nM | koff [4]: 0.000325 s⁻¹

B2: p60.12 scFv (SPR analyte) (scFv, V domains shown)
VH: B1 VH
VL: B1 VL
fold lower affinity than to the other four P domains [5]: ~1000 fold

B3: murine bnAb 8G12 (antibody, V domains shown)
VH: QLQQSGPELVKPGASVKISCKASGYTFTDFNMHWVKQSHGKSLEWIGYIYPYNGITGQNQKFKSKATLTVDNSSSSAYMELRSLTSEDSAVYYCARERFGVGNNYAWFTYWGQGTLVTVSS
VL: DIQMTQSPASLSVSVGETVTITCRASENIYSNLVWYQQKQGKSPQVLVYAATNLPDGVPSRFSGSGSGTQYSLKINSLQSEDSGSYYCQHFWETPFTFGSGTKLEIK
notes: also called control bnAb 8G12
binding result [6]: no binding | binding result [7]: binds | binding result [8]: binds | binding result [9]: binds

B4: scFv p60.15 (scFv, V domains shown)
VH: EVQLVQSGAELKKPGESLRISCKGSGYDFANYWIGWVRQMPGKGLEWMGIIYPRDSDIRYSPSFQGQVTISADKSISTAYLQLSSLKASDTAMYYCARHLRGLRLGELFPFDYWGQGTLVTVSS
VL: AIQLTQSPSSLSASVGDSVTITCRASQDIFSYLAWYQQKPGKAPKLLIYAASTLQSGVPSRFSGSGSGTDFTLTISSLQPEDFATYYCQQLNRYPFAFGPGTKVDIK
notes: also called bnAb p60.15; nAb p60.15
Kd [10]: 0.166 nM | koff [10]: 5.18e-05 s⁻¹

B5: p60.15 IgG1 (antibody, V domains shown)
VH: B4 VH
VL: B4 VL
notes: also called nAb p60.15; bnAb p60.15
binding result [6]: no binding (tested: 2 μg/ml)

B6: scFv p60.1 (scFv, V domains shown)
VH: EVQLQQSGPGLVKPSQTLSLICAISGDSVSTINAAWNWIRQSPSRGLEWLGRTYYRSKWYHEYATSVQGRIIITPDTSKNQFSLQLNSVTPEDSAVYFCARDRGPTPFDFWGQGTLVTVSS
VL: DIQMTQSPSSLSASVGDSVTITCRANQSISRSLNWYQQQPGKAPNLLIYAASHLHSGVSSRFSGSGSGADFALTISSLQPEDFATYHCQQSFVTPFTFGPGTKVDLK
notes: also called bnAb p60.1; nAb p60.1
Kd [1]: 4930 nM | koff [1]: 0.456 s⁻¹ | Kd [2]: 0.0382 nM | koff [2]: 5.14e-05 s⁻¹ | Kd [3]: 0.128 nM | koff [3]: 8.16e-05 s⁻¹ | Kd [4]: 0.0238 nM | koff [4]: 2.56e-05 s⁻¹

B7: p60.1 scFv (SPR analyte) (scFv, V domains shown)
VH: B6 VH
VL: B6 VL
notes: also called scFv-p60.1
fold lower affinity than to the other four P domains [5]: ~1000 fold

B8: scFv p61.15 (scFv, V domains shown)
VH: QVQLVQSGAEVKKPGASVKVSCKASGYTFTNYFMHWVRQAPGQGLEWMGVFNPRGGSTTYAQKFQGRITMTSDPSTSTVYMELTSLTSEDTAMYYCARMGSVTGPVGHRWLDPWGQGTLVTVSS
VL: EIVLTQSPATLSLSPGERAALSCRASQSVDTYLAWYQQKPGQAPRLLIYDASTRAPGIPARFSGSGSGTDFTLTISSLEPEDFAVYYCQQRYNWPPITFGQGTRLEIK
notes: also called bnAb p61.15; nAb p61.15
Kd [2]: 0.154 nM | koff [2]: 0.000142 s⁻¹ | Kd [3]: 0.896 nM | koff [3]: 0.000585 s⁻¹ | Kd [4]: 1.51 nM | koff [4]: 0.000604 s⁻¹ | Kd [10]: 0.0816 nM | koff [10]: 2.56e-05 s⁻¹

B9: p61.15 scFv (SPR analyte) (scFv, V domains shown)
VH: B8 VH
VL: B8 VL
notes: also called scFv-p61.15
binding result [11]: binds | binding result [12]: binds

B10: p61.15 IgG1 (antibody, V domains shown)
VH: B8 VH
VL: B8 VL
notes: also called nAb p61.15; bnAb p61.15
binding result [6]: no binding (tested: 2 μg/ml) | binding result [7]: binds | binding result [13]: binds
